Laboratory results: PMC4947014
Changes are numbered by the printed parent chain. In names and notes the source's numbering stands.

B1: Spy, wild type (natural protein)
chain: ADTTTAAPADAKPMMHHKGKFGPHQDMMFKDLNLTDAQKQQIREIMKGQRDQMKRPPLEERRAMHDIIASDTFDKVKAEAQIAKMEEQRKANMLAHMETQNKIYNILTPEQKKQFNANFEKRLTERPAAKGKMPATAE
B2: Spy H96L (natural protein)
chain: B1 chain with H96L
B3: Spy Q100L (natural protein)
chain: B1 chain with Q100L

Experiments:
[1] = molecular target: Im7 L18AL19AL37AH40W (E. coli); experiment: stopped-flow fluorescence
Im7, wild type (E. coli) = experiment: stopped-flow fluorescence
[2] = molecular target: Im7 L18AL19AL37AH40W (E. coli)

Binder | kon [1] [M⁻¹ s⁻¹] | kobs of release of native Im7 (double mixing, chase after 6 ms) (Im7, wild type (E. coli)) [s⁻¹] | koff (Im7, wild type (E. coli)) [s⁻¹] | stoichiometry N [2] | fold increase in affinity (Kd) over SpyWT [1] [fold] | fold lower release rate constant (koff) than SpyWT [1] [fold]
B1 | 1.2e+08 | 141 | 131 | 1 | – | –
B2 | – | – | – | – | 7 | 5
B3 | – | – | – | – | 150 | 130
